Measurements: patent publication US20200254053A1
No end group written: not given here. dPEG24 = 24 PEG moieties

Biological target: C1q as present in the human serum or plasma of the hemolytic assays (human) (UniProt P02745)
Assay: cell-based or functional assay

Sequence of UniProt P02745 (P02745 23-245 limits assumed, chain 1 of 3): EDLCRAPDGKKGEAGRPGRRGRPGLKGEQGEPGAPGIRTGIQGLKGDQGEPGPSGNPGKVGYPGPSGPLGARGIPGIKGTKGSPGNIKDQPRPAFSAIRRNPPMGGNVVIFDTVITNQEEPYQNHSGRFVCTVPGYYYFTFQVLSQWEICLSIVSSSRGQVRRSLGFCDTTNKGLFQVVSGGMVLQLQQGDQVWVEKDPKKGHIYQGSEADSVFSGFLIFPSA
Sequence of UniProt P02745 (P02746 28-253 limits assumed, chain 2 of 3, further chain): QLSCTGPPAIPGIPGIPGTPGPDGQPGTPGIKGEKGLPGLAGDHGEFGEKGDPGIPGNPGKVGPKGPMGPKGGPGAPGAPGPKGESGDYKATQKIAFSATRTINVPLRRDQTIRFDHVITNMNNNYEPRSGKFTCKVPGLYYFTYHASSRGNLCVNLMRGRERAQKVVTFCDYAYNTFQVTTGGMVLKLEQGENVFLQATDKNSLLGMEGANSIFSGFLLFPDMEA
Sequence of UniProt P02745 (P02747 29-245 limits assumed, chain 3 of 3, further chain): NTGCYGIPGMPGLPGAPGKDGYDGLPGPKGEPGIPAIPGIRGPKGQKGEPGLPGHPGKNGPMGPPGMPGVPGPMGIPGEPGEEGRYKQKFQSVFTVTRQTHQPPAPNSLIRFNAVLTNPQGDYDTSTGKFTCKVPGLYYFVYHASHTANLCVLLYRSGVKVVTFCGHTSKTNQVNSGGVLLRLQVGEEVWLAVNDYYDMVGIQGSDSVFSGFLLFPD

**Q.** For IALILEPICCQERAA-dPEG24 (cysteine pairing not given here) [PA-dPEG24], which Hemolysis in presence of PA-dPEG24 (Abs 412 nm), type-O donor #1 plasma with B+ erythrocytes (0.747 without peptide) is on record?
**A.** The Hemolysis in presence of PA-dPEG24 (Abs 412 nm), type-O donor #1 plasma with B+ erythrocytes (0.747 without peptide) was 0.008 Abs 412 nm.

**Q.** And the inhibition of hemolysis, type-O plasma with type-B erythrocytes, dose response (FIG. 8)?
**A.** Its inhibition of hemolysis, type-O plasma with type-B erythrocytes, dose response (FIG. 8) is > 95%.
